From PMC4131202 (Current biology : CB, 2013)

Target: muscle actin filaments (UniProt P68135 1-377)
Assay: co-sedimentation

B1: GST-Pan1(1633-1794), C-terminal fragment of fission yeast Pan1p including the A, PP and W domains (domain or fragment)
chain: PPAPSPLQPSGHDSDNWSQHGDEEEEDSEDDIRSSKDAAALAAKLFGGMAPAHPVSTPPVRPQSAAPPQMSAPTPPPPPMSVPPPPSAPPMPAGPPSAPPPPLPASSAPSVPNPGDRSALLQQIHTGTRLKKTVTTDKSKPIAGRVLDASDGNSSAWYGNLS
Kd: 2900 nM
